Measurements published in patent US20200171161A1 (Bicycle, published 2020).
Blank lines part the entries; values can stand above or below the binder they belong to. Numbered stars: 1 amine (or outer) side, 2 acyl side, 3 side chain; on linkers, the order of the positions; unused ones are H or OH. Bridge positions count the residues as written; N and C are the ends. Square brackets hold non-standard residues; d marks the D form. Ends that are not written are not given here. * marks the point of attachment. DOTA = O=C(O)CN1CCN(CC(=O)O)CCN(CC(=O)*)CCN(CC(=O)O)CC1; Phe(4-Br) = N[C@@H](Cc1ccc(Br)cc1)C(=O)O; 1Nal = N[C@@H](Cc1cccc2ccccc12)C(=O)O; TBMB = c1c(C[*:1])cc(C[*:3])cc1C[*:2]; Tle = CC(C)(C)[C@H](N)C(=O)O; βAla = NCCC(=O)O; Sar = CNCC(=O)O

Key:
[1] = target: T1, dog MT1-MMP hemopexin domain (dog); experiment: FP competition, dog hemopexin domain
T1 construct: domain: hemopexin domain
Procedure: (§1) Subsequently, the non-fluorescent competitor bicyclic peptide (usually just the bicycle core sequence) is titrated, such that it displaces the fluorescent tracer from the target protein. The displacement of the tracer is measured and associated with a drop in fluorescence polarisation. The drop in fluorescence polarisation is proportional to the fraction of target protein bound with the non-fluorescent titrant, and thus is a measure of the affinity of titrant to target protein.

[2] = target: T2, human MT1-MMP hemopexin domain (hemopexin-like repeats, residues Cys319-Gly511), N-terminally His6-tagged … (human, UniProt P50281 319-511); experiment: FP competition vs MT1-MMP hemopexin domain (tracer not given)
T2 construct: range 319-511; Secreted from HEK293 cells; also called hemopexin protein; MT1-MMP (=MMP-14); not shown: N-terminal His6 tag from pEXPR-IBA42 vector
Procedure: as §1

[3] = target: T2, human MT1-MMP hemopexin domain …; experiment: Kd, method not named in table (FP competition by the methods)

Kd [1]: 0.9 nM
Binder: G[Sar][Sar][Sar][Sar][Sar][Sar][Sar][Sar][Sar][Sar]ACYNEFGCEDFYDIC-NH2 (linker 13-19-26 via TBMB) [17-69-07-N219, G-Sar10-A-(17-69-07) (non-stabilised with spacer)]

Kd [2]: 0.8 nM
B1: 17-69-07-N252, Ac-(17-69-07) D-Ala1 1Nal4 D-Ala5 4BrPhe9 tBuGly11 (peptide)
chain: Ac-C[dA]NE[1Nal][dA]CEDF[Phe(4-Br)]D[Tle]C-NH2
modifications: linker 1-7-14 via TBMB
SMILES: CC(=O)N[C@H]1CSCc2cc3cc(c2)CSC[C@H](NC(=O)[C@@H](C)NC(=O)[C@H](Cc2cccc4ccccc24)NC(=O)[C@H](CCC(=O)O)NC(=O)[C@H](CC(N)=O)NC(=O)[C@@H](C)NC1=O)C(=O)N[C@@H](CCC(=O)O)C(=O)N[C@@H](CC(=O)O)C(=O)N[C@@H](Cc1ccccc1)C(=O)N[C@@H](Cc1ccc(Br)cc1)C(=O)N[C@@H](CC(=O)O)C(=O)N[C@@H](C(C)(C)C)C(=O)N[C@H](C(N)=O)CSC3

Kd [2]: 1.56 nM
Binder: Ac-CYNEFGCEDFYD[Tle]C-NH2 (linker 1-7-14 via TBMB) [17-69-07-N100, Ac-(17-69-07) tBuGly11]

Kd [3]: 0.5 nM
B2: 17-69-07-N248, DOTA-A-(17-69-07) D-Ala1 1Nal4 D-Ala5 4BrPhe9 tBuGly11 (peptide)
chain: {DOTA}-AC[dA]NE[1Nal][dA]CEDF[Phe(4-Br)]D[Tle]C-NH2
modifications: linker 2-8-15 via TBMB
SMILES: C[C@H](NC(=O)CN1CCN(CC(=O)O)CCN(CC(=O)O)CCN(CC(=O)O)CC1)C(=O)N[C@H]1CSCc2cc3cc(c2)CSC[C@H](NC(=O)[C@@H](C)NC(=O)[C@H](Cc2cccc4ccccc24)NC(=O)[C@H](CCC(=O)O)NC(=O)[C@H](CC(N)=O)NC(=O)[C@@H](C)NC1=O)C(=O)N[C@@H](CCC(=O)O)C(=O)N[C@@H](CC(=O)O)C(=O)N[C@@H](Cc1ccccc1)C(=O)N[C@@H](Cc1ccc(Br)cc1)C(=O)N[C@@H](CC(=O)O)C(=O)N[C@@H](C(C)(C)C)C(=O)N[C@H](C(N)=O)CSC3

Kd [1]: 1.4 nM
B3: 17-69-07-N241, bAla-Sar10-A-(17-69-07) D-Ala1 1Nal4 D-Ala5 tBuGly11 (peptide)
peptide: [βAla][Sar][Sar][Sar][Sar][Sar][Sar][Sar][Sar][Sar][Sar]AC[dA]NE[1Nal][dA]CEDFYD[Tle]C-NH2
modifications: linker 13-19-26 via TBMB; N-terminus assumed
SMILES: C[C@H](NC(=O)CN(C)C(=O)CN(C)C(=O)CN(C)C(=O)CN(C)C(=O)CN(C)C(=O)CN(C)C(=O)CN(C)C(=O)CN(C)C(=O)CN(C)C(=O)CN(C)C(=O)CCN)C(=O)N[C@H]1CSCc2cc3cc(c2)CSC[C@H](NC(=O)[C@@H](C)NC(=O)[C@H](Cc2cccc4ccccc24)NC(=O)[C@H](CCC(=O)O)NC(=O)[C@H](CC(N)=O)NC(=O)[C@@H](C)NC1=O)C(=O)N[C@@H](CCC(=O)O)C(=O)N[C@@H](CC(=O)O)C(=O)N[C@@H](Cc1ccccc1)C(=O)N[C@@H](Cc1ccc(O)cc1)C(=O)N[C@@H](CC(=O)O)C(=O)N[C@@H](C(C)(C)C)C(=O)N[C@H](C(N)=O)CSC3
notes: also called βAla-Sar10-A-C(D-Ala)NE(1Nal)(D-Ala)CEDFYD(tBuGly)C
